One substance from paper PMC6053543 can be followed below.

The experiment has as its target β1 wild-type cytoplasmic tail peptide. Briefly: pull-down.

The substance “recombinant full length talin-1, P26039 1-2541” had a fold more talin pulled down with equal molar FL-Kank2 than with GST only of 5 fold and a fold more talin pulled down with equal molar GST-KN than with GST only of 5 fold.
